From the supplement of paper PMC12042874 come the findings set out here.

± gives the uncertainty stated by the source.

A short description of this data set: amyloid nucleation score (Sup35N fusion, yeast selection) (log enrichment); library NNK2; higher = more nucleation; inactive = no reads after selection. In outline:
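Sup35N was fused to peptides of 20 random codons and expressed in psi-negative yeast, which were induced with 100 μM copper sulfate for 24 hours and then grown on medium lacking adenine and uracil for 7 days at 30°C. Plasmid inserts from input and output were sequenced on Illumina. The nucleation score is the DiMSum log enrichment of output over input reads, centred on the mode score of non-aggregating sequences. Sequences with under 100 input reads were left out, and random libraries had three technical output replicates.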
The substance RVCPVSG returned an amyloid nucleation score of -0.068 ± 0.79.

In turn, RVDVLIE had an amyloid nucleation score of 9.82 ± 0.048.

Consider RVESDTDVIVQIMQWRGVFL, for which the amyloid nucleation score came to 0.334 ± 0.28.

As to RVFSLDWVIERMSVEFHSWG, the amyloid nucleation score result is “inactive”.

The substance RVGTLKTISFHSNLNSNKIR displayed an amyloid nucleation score of -0.614 ± 0.33.

For the substance RVIILNTNDGSVEDMYVESQ, the amyloid nucleation score came to 3.98 ± 0.049.

The substance RVIVGRYWQSTDVVYYIWNF displayed an amyloid nucleation score of -1.59 ± 0.76.

The substance RVKLACTRLCWLSADFDGNL yielded an amyloid nucleation score of 4.04 ± 0.079.

RVLRLVSVLLFDVILSVE registered an amyloid nucleation score of 4.85 ± 0.085.

As to RVLSGRLTTNVDARGCELDR, the amyloid nucleation score was 1.3 ± 0.29.

With RVLVSS, the amyloid nucleation score came to 0.713 ± 0.8.

Consider RVPGRDALSIASWLQSTGQV, for which the amyloid nucleation score came out at 1.03 ± 0.21.

RVPIWRANIGKGSSIMPIFC came in with an amyloid nucleation score of 0.009 ± 0.76.

On to RVRDYSYGGSQRLGGYMLG, for which the amyloid nucleation score was -0.64 ± 0.61.

RVSMFKDLKYNGSYSWNSHG displayed an amyloid nucleation score of -1.22 ± 0.41.

In turn, RVSTVFSLKTRRCEFLFQCV returned an amyloid nucleation score of 0.24 ± 0.35.

Turning to RVTHAFCSSINGTNANYPRR, the amyloid nucleation score is 2.54 ± 0.097.

For the substance RVTSIVYLKLICFMGVSNLF, the amyloid nucleation score entry is “inactive”.

In the case of RVVQKKQLIV, the amyloid nucleation score stood at 0.3 ± 0.49.

As for RVYDGAVVR, the amyloid nucleation score turned out to be 0.547 ± 0.34.

On to RVYPFGRTRIFKTM, for which the amyloid nucleation score came to 1.33 ± 0.15.

RWDCGGGTNCSGENIWQGET gave an amyloid nucleation score of -0.083 ± 0.34.

Substance RWGMRYIMDWY gave an amyloid nucleation score of 0.007 ± 1.1.

The substance RWHFDYRVKQV gave an amyloid nucleation score of -0.058 ± 0.37.

With RWIATGSGRPETHVILESSG, the amyloid nucleation score result is “inactive”.

RWSFRLSTAIQGQPWSTPGD gave an amyloid nucleation score of 5.95 ± 0.06.

Substance RYFINSMFLGWTPFVSVNLS had an amyloid nucleation score of -0.107 ± 0.27.

The substance RYGAMKLDTSKS gave an amyloid nucleation score of 0.11 ± 0.25.

Take RYGRDGDRIIYNVCDFFFSG: the amyloid nucleation score was determined as 6.475 ± 0.047.

In the case of RYIGGSLFFRYNIVGKRQGV, the amyloid nucleation score was 3.81 ± 0.064.

Consider RYNESEVSISRETRNVVLTF, for which the amyloid nucleation score was 0.712 ± 0.26.

With RYNLARSLLFHHNTCVFMSV, the amyloid nucleation score was -0.491 ± 0.53.

Substance RYQFSATPGVVRWKFEEYSD displayed an amyloid nucleation score of -0.047 ± 0.46.

Take RYRSTLQYISVMGLDNT: the amyloid nucleation score was -0.608 ± 0.54.

For the substance RYRWARLHGVLVHDWLLLIW, the amyloid nucleation score entry is “inactive”.

RYSATLYPTVPPDPLSAWAL yielded an amyloid nucleation score of 3.8 ± 0.057.

Turning to RYSNKSDDYRGTSYLMYHVM, the amyloid nucleation score is 0.232 ± 0.45.

The substance RYTCRLFTDTYDSSVVLGAM displayed an amyloid nucleation score of 1.17 ± 0.37.

Consider SACIIVN, for which the amyloid nucleation score was -0.012 ± 1.1.

Consider SACRMNWEVGGIGLSVPLCG, for which the amyloid nucleation score stood at 0.421 ± 0.2.

Substance SAFTNRYHLPSERVGHWCPV displayed an amyloid nucleation score of 0.224 ± 0.74.

For SALCAYIQSLFNDCRTLDKW, the amyloid nucleation score is -0.5 ± 0.44.

The substance SAMQFRSFF displayed an amyloid nucleation score of 0.94 ± 0.34.

SAPRNNVATLTEHLERLVLR had an amyloid nucleation score of -0.767 ± 0.76.

Take SARFIIIWNWALSPRPRRCE: the amyloid nucleation score was found to be 7.561 ± 0.041.

In turn, SARHSRDR registered an amyloid nucleation score of 2.31 ± 0.066.

In the case of SASLSTRVNNTPLPALTRWV, the amyloid nucleation score was determined as 0.708 ± 0.62.

As for SASQDATPHGCGIGISLNTR, the amyloid nucleation score was found to be 2.79 ± 0.068.

Turning to SCEVVSRKL, the amyloid nucleation score came to 1.08 ± 0.22.

Substance SCLIGLRLVLSLTAHDTETA displayed an amyloid nucleation score of 3.97 ± 0.11.

Consider SCLVVLHIIAVISMVFSSIL, for which the amyloid nucleation score result is “inactive”.

The substance SCNAGVGSIS gave an amyloid nucleation score of -0.011 ± 0.46.

In turn, SCNGCSSMRDIFIFHGLLHN registered an amyloid nucleation score of 7.165 ± 0.033.

SCNQCYFFQEVKRSVLVIKT had an amyloid nucleation score of 3.59 ± 0.066.

Substance SCNQDYTDSLSRAELKVDSS registered an amyloid nucleation score of -1.07 ± 0.62.

The substance SCQFWSTFCTSC showed an amyloid nucleation score of 0.378 ± 0.74.

As for SCRRADFGMAVVHSLLVCGE, the amyloid nucleation score came out at 0.709 ± 0.66.

As to SCRRWHLFLGWCIDVVESIY, the amyloid nucleation score came to 1.56 ± 0.13.

SCSIPELNNEGIKVCFMNTE yielded an amyloid nucleation score of 1.27 ± 0.13.

Regarding SCVVLNSYQCTAKRY, the amyloid nucleation score was 0.284 ± 1.1.

The substance SCYLVYEFLLTGVSWWQSRL returned an amyloid nucleation score of 0.794 ± 0.48.

With SDAVSSILSFYRVPRAVGPE, the amyloid nucleation score result was “inactive”.

SDCLGKSVVVYNLLGFGR had an amyloid nucleation score of 4.791 ± 0.045.

SDCVTFATCWM returned an amyloid nucleation score of 0.096 ± 0.49.

Take SDDFTYSIYFMSWFFYGSYN: the amyloid nucleation score result is “inactive”.

SDHLCRYV registered an amyloid nucleation score of -0.095 ± 1.1.

Substance SDHMYMIFMTMFVVVSHWVI came in with an amyloid nucleation score of -0.795 ± 0.76.

SDKGYCSTFNMRQALWDYGQ showed an amyloid nucleation score of 0.081 ± 1.1.

With SDLFVNICCRPNRMGV, the amyloid nucleation score is -0.521 ± 0.48.

With SDLWSIPFFGFGDPPMGFFR, the amyloid nucleation score entry was “inactive”.

For the substance SDLYNSSFEVLYSSYCPDVW, the amyloid nucleation score entry is “inactive”.

Substance SDNTLCLTGDSAYN had an amyloid nucleation score of 0.307 ± 0.2.

In turn, SDPLSFGFGQMWIGVHNEFY gave an amyloid nucleation score of 2.2 ± 0.16.

In turn, SDPSNLSMMCTQQRLAGSD gave an amyloid nucleation score of -0.189 ± 0.49.

SDRGLRACQCVCWDFDSISM displayed an amyloid nucleation score of 6.212 ± 0.046.

On to SDSSRFVDKGSYRYKRREWE, for which the amyloid nucleation score is -0.161 ± 0.65.

SDSTSVLPGRTYWVHFSAQG: the amyloid nucleation score turned out to be 0.086 ± 0.61.

For the substance SDTKCLHY, the amyloid nucleation score result was “inactive”.

SDVSREVKV gave an amyloid nucleation score of -0.038 ± 0.37.

Regarding SDVYLTICHFFGHNLKVLPR, the amyloid nucleation score is 1.38 ± 0.26.

With SEGIADVLSVSCWCYPCRPY, the amyloid nucleation score was -1.21 ± 1.1.

Turning to SEGRATARQLLVKDTLFV, the amyloid nucleation score was determined as 4.06 ± 0.088.

Consider SELPDIRWHTGWMFLSCAWN, for which the amyloid nucleation score is -0.397 ± 0.63.

The substance SELRKVRCNG registered an amyloid nucleation score of 0.813 ± 0.46.

For SEMDPNKAMRIGW, the amyloid nucleation score was determined as 0.174 ± 0.21.

SEVHSWANGKVLTLYSRMWL registered an amyloid nucleation score of 0.885 ± 0.28.

SFCVLIRYNRFGAIS displayed an amyloid nucleation score of 1.24 ± 0.22.

The substance SFCWRYMCRFVMDSFITVPR came in with an amyloid nucleation score of -0.423 ± 0.34.

SFDIPT returned an amyloid nucleation score of -0.444 ± 0.63.

In turn, SFDVLL gave an amyloid nucleation score of -0.568 ± 0.64.

Regarding SFGDTSKRWLFAVGGCKCRL, the amyloid nucleation score was found to be 0.371 ± 0.51.

As to SFGRAENNSSARDMYV, the amyloid nucleation score is -0.535 ± 0.28.

For the substance SFIGLETCQFSFHLIF, the amyloid nucleation score is 4.15 ± 0.092.

The substance SFIWHLPFVC showed an amyloid nucleation score of 1.24 ± 0.4.

Take SFKLYLYVGAVFFRLLSLVS: the amyloid nucleation score was -1.08 ± 0.76.

As to SFLIFRDVSFAGEGL, the amyloid nucleation score is -1.21 ± 1.1.

Turning to SFLYLPDGTDMI, the amyloid nucleation score was found to be 0.171 ± 0.29.

SFNNVKLDGRSF gave an amyloid nucleation score of -0.59 ± 0.64.

Substance SFQCSWIG gave an amyloid nucleation score of 3.04 ± 0.088.

As to SFQPMRQFNFMINLWTVGAA, the amyloid nucleation score was determined as 7.179 ± 0.056.

SFRYLCIRNGTSYGMYTSPV showed an amyloid nucleation score of 0.478 ± 0.8.

As to SFSCNNSLDYKGNFS, the amyloid nucleation score came out at 1.48 ± 0.18.

The substance SFSDVLNSGVRCF displayed an amyloid nucleation score of 0.234 ± 0.35.

SFTCALRLGVRGHWLIVTSF showed an amyloid nucleation score of 0.276 ± 1.

The substance SFVTTKSSFL returned an amyloid nucleation score of -0.205 ± 0.74.

Consider SFYDARYFQCDVFAVVRIRR, for which the amyloid nucleation score is 0.853 ± 0.47.

As for SFYIRGYISFLGHRTW, the amyloid nucleation score was determined as 2.57 ± 0.17.

In the case of SGCPNDWQYFSS, the amyloid nucleation score was -1.08 ± 0.54.

Substance SGDLMYSGRTSPMPAAQKFV came in with an amyloid nucleation score of -0.393 ± 1.1.

Substance SGGVR came in with an amyloid nucleation score of 0.94 ± 0.32.

On to SGHTFVFFYDSK, for which the amyloid nucleation score was found to be 5.95 ± 0.061.

On to SGIGVNSGAGRNMDLCDLKR, for which the amyloid nucleation score entry is “inactive”.

Consider SGNAGLFNRARGSVVTAVLV, for which the amyloid nucleation score is 0.463 ± 0.64.

In turn, SGRIYSGDETMFRWECRYWC registered an amyloid nucleation score of 3.25 ± 0.051.

As for SGVIEIMFEKSHRLHCCLFC, the amyloid nucleation score was determined as 1.08 ± 0.41.

SGWELRQITFGMTDCIGG displayed an amyloid nucleation score of -0.328 ± 0.42.

Take SGYMAHVLVFLSEGISVPC: the amyloid nucleation score result was “inactive”.

With SHCGHRSATGVLSPLQTKGH, the amyloid nucleation score was -0.159 ± 0.54.

SHEFSRMLEEFWDHNNVRSH gave an amyloid nucleation score of -1.1 ± 0.48.

SHFADSKVHVWSMSQLATCC gave an amyloid nucleation score of 0.22 ± 0.29.

In turn, SHGPLR displayed an amyloid nucleation score of 5.556 ± 0.053.

Consider SHILSNVTYGLADVAFCACS, for which the amyloid nucleation score was found to be 7.542 ± 0.067.

Turning to SHINFYVLEFWTFRIGDVFV, the amyloid nucleation score entry is “inactive”.

The substance SHIPIWRKLSVQFSVKIVLE showed an amyloid nucleation score of -0.637 ± 1.1.

In the case of SHNDISSRC, the amyloid nucleation score was -0.795 ± 0.49.

In the case of SHQLICFSWRLDFYHRGLLQ, the amyloid nucleation score turned out to be 2.5 ± 0.13.

As for SHRCELKWTGLVMNYKVVHC, the amyloid nucleation score turned out to be 1.71 ± 0.25.

Turning to SHTWKQMRYYLDNWSLY, the amyloid nucleation score was -0.288 ± 1.

SIAGVIMVDSSSLSM gave an amyloid nucleation score of -1.01 ± 0.78.

Regarding SIDSRYW, the amyloid nucleation score is -0.283 ± 0.63.

As for SIFRWKREKAVGLYPLHQVA, the amyloid nucleation score is -0.094 ± 0.76.

As for SIFVTYSLRTYINYK, the amyloid nucleation score came to 5.95 ± 0.062.

As for SIILLDYCPRRNSSTIALRH, the amyloid nucleation score is -0.118 ± 0.43.

Regarding SILATYPMVRSRISIMNATL, the amyloid nucleation score was -0.174 ± 0.28.

For the substance SILFFKGGLRRSLEHLACTA, the amyloid nucleation score came out at 0.635 ± 0.52.

For SILLLIKVYFWGLCNPMILA, the amyloid nucleation score is -1.65 ± 1.

In turn, SILLRKRQELSNFTMW returned an amyloid nucleation score of -0.67 ± 0.76.

In the case of SIMGYGFDVRCELCDVTGGW, the amyloid nucleation score was -0.079 ± 0.53.

On to SINLLLGAGVVGGGLVLYGS, for which the amyloid nucleation score was 2.45 ± 0.14.
